The record followed here is the supplement of paper PMC7877785.

± gives the uncertainty stated by the source.

The nature of this data set: self-splicing fitness, log relative to wild type (ln ratio); higher = more splicing; Tetrahymena group I intron in knt gene, E. coli kanamycin selection, DiMSum; sequences stand for … in CUCUCU…GGAGGGAAAAGUUAUCAGGCAUGCACCUGGUAGCUAGUCUUUAAACCAAUAGAUUGCAUCGGUUUAAAAGGCAAGACCGUCAAAUUGCGGGAAAGGGGUCAACAGCCGUUCAGUACCAAGUCUCAGGGGAAACUUUGAGAUGGCCUUGCAAAGGGUAUGGUAAUAAGCUGACGGACAUGGUCCUAACCACGCAGCCAAGUCCUAAGUCAACAGAUCUUCUGUUGAUAUGGAUGCAGUUCACAGACUAAAUGUCGGUCGGGGAAGAUGUAUUCUUCUCAUAAGAUAUAGUCGGACCUCUCCUUAAUGGGAGCUAGCGGAUGAAGUGAUGCAACACUGGAGCCGCUGGGAACUAAUUUGUAUGCGAAAGUAUAUUGAUUAGUUUUGGAGUACUCGUGGUCG
Put shortly: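 Library with all eight P1ex-region intron nucleotides randomised, intron inside the knt kanamycin-resistance gene on pET-22b(+), in E. coli BL21(DE3). Cells grew overnight at 37°C or 30°C on LB agar with or without 25 μg/mL kanamycin (plus 100 μg/mL carbenicillin, 50 μM IPTG, 0.2% rhamnose), in six replicate transformations. Pooled colonies were amplicon-sequenced on Illumina HiSeq 2500. DiMSum fitness is the error-weighted combination of wild-type-normalised replicate fold changes, kanamycin versus none.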

For the sequence CAUUAGCAAUAUUACGGCGG, the “self-splicing fitness (ln)” value by setting is: (30 °C) 0.0154 ± 0.093; (37 °C) 0.252 ± 0.12.

Turning to UUCCAGCAAUAUUACGGGAG, the “self-splicing fitness (ln)” value by setting is: (30 °C) -3.38 ± 0.16; (37 °C) -1.77 ± 0.14.

Turning to CCACAGCAAUAUUACGCACG, the “self-splicing fitness (ln)” value runs as follows: (30 °C) -0.551 ± 0.063; (37 °C) -0.626 ± 0.093.

Regarding GUUAAGCAAUAUUACGCACA, the “self-splicing fitness (ln)” value (30 °C) was -0.425 ± 0.09 and the “self-splicing fitness (ln)” value (37 °C) was -0.0375 ± 0.11.

Consider GCAUAGCAAUAUUACGCCUA, for which the “self-splicing fitness (ln)” value by setting is: (30 °C) -1.83 ± 0.13; (37 °C) -1.39 ± 0.12.

With UUUCAGCAAUAUUACGACAG, the “self-splicing fitness (ln)” value by setting is: (30 °C) -0.245 ± 0.089; (37 °C) 0.886 ± 0.15.

For CCGUAGCAAUAUUACGAGCC, the “self-splicing fitness (ln)” value (37 °C) is -1.01 ± 0.42.

Regarding UCUGAGCAAUAUUACGGAAG, the “self-splicing fitness (ln)” value is -4.27 ± 0.2 (30 °C) and -3.07 ± 0.23 (37 °C).

On to ACAUAGCAAUAUUACGGAAG, for which the “self-splicing fitness (ln)” value is -3.57 ± 0.15 (30 °C) and -3.04 ± 0.22 (37 °C).

As to UUAUAGCAAUAUUACGGCUA, the “self-splicing fitness (ln)” value (30 °C) was -0.836 ± 0.15 and the “self-splicing fitness (ln)” value (37 °C) is -0.316 ± 0.14.

For AGCGAGCAAUAUUACGAGCG, the “self-splicing fitness (ln)” value runs as follows: (30 °C) -1.55 ± 0.14; (37 °C) -0.201 ± 0.14.

As for UACAAGCAAUAUUACGCUUA, the “self-splicing fitness (ln)” value by setting is: (30 °C) -2.33 ± 0.11; (37 °C) -1.18 ± 0.08.

On to CAGCAGCAAUAUUACGUGUC, for which the “self-splicing fitness (ln)” value runs as follows: (30 °C) -3.31 ± 0.15; (37 °C) -2.79 ± 0.18.

For UUAUAGCAAUAUUACGUACC, the “self-splicing fitness (ln)” value is, setting by setting: (30 °C) -3.97 ± 0.31; (37 °C) -3.01 ± 0.3.

As for AACAAGCAAUAUUACGCGCU, the “self-splicing fitness (ln)” value by setting is: (30 °C) -0.49 ± 0.07; (37 °C) -0.454 ± 0.078.

As for GUAGAGCAAUAUUACGACAU, the “self-splicing fitness (ln)” value is 0.278 ± 0.014 (30 °C) and 0.459 ± 0.033 (37 °C).

Turning to CAAGAGCAAUAUUACGCUAA, the “self-splicing fitness (ln)” value reads like this: (30 °C) -3.93 ± 0.27; (37 °C) -1.52 ± 0.21.

With UUCCAGCAAUAUUACGUCAG, the “self-splicing fitness (ln)” value is, setting by setting: (30 °C) -1.75 ± 0.077; (37 °C) -1.19 ± 0.097.

With GGUGAGCAAUAUUACGAACG, the “self-splicing fitness (ln)” value runs as follows: (30 °C) -0.652 ± 0.13; (37 °C) -1.23 ± 0.17.

Consider CAUCAGCAAUAUUACGGCGU, for which the “self-splicing fitness (ln)” value by setting is: (30 °C) -2.3 ± 0.14; (37 °C) -1.94 ± 0.17.

Consider UACAAGCAAUAUUACGACUA, for which the “self-splicing fitness (ln)” value was -0.188 ± 0.062 (30 °C) and 0.316 ± 0.083 (37 °C).

With CUCCAGCAAUAUUACGUUUC, the “self-splicing fitness (ln)” value is -3.65 ± 0.28 (30 °C) and -3.12 ± 0.3 (37 °C).

For the sequence UUGUAGCAAUAUUACGAGUU, the “self-splicing fitness (ln)” value (30 °C) is -3.22 ± 0.25 and the “self-splicing fitness (ln)” value (37 °C) is -2.61 ± 0.26.

On to GUGCAGCAAUAUUACGGAAG, for which the “self-splicing fitness (ln)” value reads like this: (30 °C) -3.19 ± 0.24; (37 °C) -1.77 ± 0.25.

Regarding AGACAGCAAUAUUACGACUG, the “self-splicing fitness (ln)” value reads like this: (30 °C) -1.14 ± 0.078; (37 °C) -0.387 ± 0.084.

For CUCGAGCAAUAUUACGCUCG, the “self-splicing fitness (ln)” value (30 °C) is -2.72 ± 0.42.

Consider GGUGAGCAAUAUUACGUCGU, for which the “self-splicing fitness (ln)” value was -2.57 ± 0.15 (30 °C) and -1.91 ± 0.2 (37 °C).

Take UUUAAGCAAUAUUACGCACG: the “self-splicing fitness (ln)” value reads like this: (30 °C) -0.565 ± 0.16; (37 °C) -0.685 ± 0.22.

For the sequence ACCUAGCAAUAUUACGAUCG, the “self-splicing fitness (ln)” value (30 °C) is -1.19 ± 0.083 and the “self-splicing fitness (ln)” value (37 °C) was -0.6 ± 0.1.

Consider UAGCAGCAAUAUUACGCAAG, for which the “self-splicing fitness (ln)” value is -3.04 ± 0.23 (30 °C) and -1.76 ± 0.21 (37 °C).

Consider GCUGAGCAAUAUUACGAGAU, for which the “self-splicing fitness (ln)” value (30 °C) is -3.06 ± 0.34 and the “self-splicing fitness (ln)” value (37 °C) was -2.09 ± 0.31.

Take AUCUAGCAAUAUUACGAUCG: the “self-splicing fitness (ln)” value runs as follows: (30 °C) -3.35 ± 0.24; (37 °C) -1.77 ± 0.27.

Take AUAGAGCAAUAUUACGCACC: the “self-splicing fitness (ln)” value by setting is: (30 °C) -1.1 ± 0.35; (37 °C) -1.41 ± 0.44.

For GUAGAGCAAUAUUACGUCUA, the “self-splicing fitness (ln)” value (30 °C) is -1.34 ± 0.11 and the “self-splicing fitness (ln)” value (37 °C) is -0.919 ± 0.13.

As for GCGGAGCAAUAUUACGCAUU, the “self-splicing fitness (ln)” value (30 °C) was -2.8 ± 0.39.

Consider CACUAGCAAUAUUACGGUGC, for which the “self-splicing fitness (ln)” value is -2.24 ± 0.22 (30 °C) and -2.43 ± 0.35 (37 °C).

On to CAGAAGCAAUAUUACGCCAG, for which the “self-splicing fitness (ln)” value is -0.586 ± 0.072 (30 °C) and -0.605 ± 0.12 (37 °C).

In the case of UAUAAGCAAUAUUACGUAGG, the “self-splicing fitness (ln)” value is -3 ± 0.27 (30 °C) and -0.609 ± 0.27 (37 °C).

With CCUGAGCAAUAUUACGGCGC, the “self-splicing fitness (ln)” value (30 °C) is -4.1 ± 0.28.
